Experimental data taken from paper PMC2290040 (The Journal of Cell Biology, 1992).

Assays:
Assay in all cases: co-IP
[1] = target: T1, RHL-1 truncated at the carboxy terminus, product of 204 aa (rat, UniProt P02706 1-204, [35S]methionine label)
T1 sequence (looked up): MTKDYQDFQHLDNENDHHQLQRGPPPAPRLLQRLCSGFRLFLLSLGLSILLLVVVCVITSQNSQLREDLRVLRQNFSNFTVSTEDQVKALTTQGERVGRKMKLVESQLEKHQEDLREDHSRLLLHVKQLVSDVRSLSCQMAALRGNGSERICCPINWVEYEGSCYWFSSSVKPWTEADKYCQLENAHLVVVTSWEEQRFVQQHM

[2] = target: T2, RHL-1 truncated at the carboxy terminus, product of 260 aa (rat, UniProt P02706 1-260, [35S]methionine label)
T2 sequence (looked up): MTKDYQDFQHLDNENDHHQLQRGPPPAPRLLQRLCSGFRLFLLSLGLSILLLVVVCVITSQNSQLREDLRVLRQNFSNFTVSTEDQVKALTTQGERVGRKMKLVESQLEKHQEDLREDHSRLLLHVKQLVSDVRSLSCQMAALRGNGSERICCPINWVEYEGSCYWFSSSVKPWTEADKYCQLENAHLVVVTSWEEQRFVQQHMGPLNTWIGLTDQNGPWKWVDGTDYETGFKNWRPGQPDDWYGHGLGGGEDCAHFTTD

[3] = target: T3, RHL-1 truncated at the carboxy terminus, product of 267 aa (rat, UniProt P02706 1-267, [35S]methionine label)
T3 sequence (looked up): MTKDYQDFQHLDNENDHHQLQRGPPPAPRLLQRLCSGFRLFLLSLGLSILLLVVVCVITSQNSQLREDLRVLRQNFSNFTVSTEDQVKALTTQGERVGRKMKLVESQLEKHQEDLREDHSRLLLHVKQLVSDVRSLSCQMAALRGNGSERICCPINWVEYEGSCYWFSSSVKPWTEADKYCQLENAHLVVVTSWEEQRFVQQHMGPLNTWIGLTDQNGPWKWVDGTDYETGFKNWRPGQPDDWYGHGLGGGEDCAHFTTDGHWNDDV

B1: rat hepatic lectin subunit RHL-2/3 (subunit of the rat asialoglycoprotein receptor), full length (natural protein, UniProt P08290 1-301, looked up)
chain: MEKDFQDIQQLDSEENDHQLIGDEEQGSHVQNLRTENPRWGGQPPSRPFPQRLCSKFRLSLLALAFNILLLVVICVVSSQSMQLQKEFWTLKETLSNFSTTTLMEFKALDSHGGSRNDNLTSWETILEKKQKDIKADHSTLLFHLKHFPLDLRTLTCQLAFFLSNGTECCPVNWVEFGGSCYWFSRDGLTWAEADQYCQMENAHLLVINSREEQEFVVKHRGAFHIWIGLTDKDGSWKWVDGTEYRSNFKNWAFTQPDNWQGHEEGGSEDCAEILSDGLWNDNFCQQVNRWACERKRDITY
modifications: [35S]methionine label; glycosylated by the microsomes
percent of RHL-2/3 coimmunoprecipitated, relative to full-length RHL-1 [1]: 88% | percent of RHL-2/3 coimmunoprecipitated, relative to full-length RHL-1 [2]: 100% | percent of RHL-2/3 coimmunoprecipitated, relative to full-length RHL-1 [3]: 100%
